The text below walks through data of US20190375824A1 (PANASONIC INTELLECTUAL PROPERTY MANAGEMENT, published 2019).

First the molecules themselves.
B1: VHH antibody of SEQ ID NO: 1 (VHH)
VHH: QVQLVESGGGLVQAGDSLRLSCAASGRTFSGYAMGWFRQAPGKEREFVARINWSGTLTYYADSVKGRFTGSRDNAKNTVYLQMNSLKPEDTAVYYCAQRGDSGSNYDPSGYSYWGQGTQVTVSS
notes: Isolated from a phage library; also called WT VHH
B2: VHH antibody in which glycine in position 36, glycine in position 78, and serine in position 116 of SEQ ID NO: 1 were substituted (SEQ ID NO: 10) (VHH)
VHH: QVQLVESGGGLVQAGDSLRLSCAASGRTFSDYAMGWFRQAPGKEREFVARINWSGTLTYYADSVKGRFTASRDNAKNTVYLQMNSLKPEDTAVYYCAQRGDSGSNYDPSGYRYWGQGTQVTVSS
notes: Text says asparagine at IMGT 36; also called G36D/G78A/S116R mutant
B3: VHH antibody in which glycine in position 36, arginine in position 50, and serine in position 116 of SEQ ID NO: 1 were substituted (SEQ ID NO: 9) (VHH)
VHH: QVQLVESGGGLVQAGDSLRLSCAASGRTFSDYAMGWFRQAPGKELEFVARINWSGTLTYYADSVKGRFTGSRDNAKNTVYLQMNSLKPEDTAVYYCAQRGDSGSNYDPSGYRYWGQGTQVTVSS
notes: Text says asparagine at IMGT 36; also called G36D/R50L/S116R mutant
B4: VHH antibody in which glycine in position 36 and serine in position 116 of SEQ ID NO: 1 were substituted (SEQ ID NO: 7) (VHH)
VHH: QVQLVESGGGLVQAGDSLRLSCAASGRTFSDYAMGWFRQAPGKEREFVARINWSGTLTYYADSVKGRFTGSRDNAKNTVYLQMNSLKPEDTAVYYCAQRGDSGSNYDPSGYRYWGQGTQVTVSS
notes: Text says asparagine at IMGT 36; also called G36D/S116R mutant
B5: VHH antibody in which glycine in position 36, arginine in position 50, glycine in position 78, and serine in position 116 of SEQ ID NO: 1 were substituted (SEQ … (VHH)
VHH: QVQLVESGGGLVQAGDSLRLSCAASGRTFSDYAMGWFRQAPGKELEFVARINWSGTLTYYADSVKGRFTASRDNAKNTVYLQMNSLKPEDTAVYYCAQRGDSGSNYDPSGYRYWGQGTQVTVSS
notes: Text says asparagine at IMGT 36; also called G36D/R50L/G78A/S116R mutant
B6: VHH antibody in which glycine in position 36 of SEQ ID NO: 1 was substituted (SEQ ID NO: 3) (VHH)
VHH: QVQLVESGGGLVQAGDSLRLSCAASGRTFSDYAMGWFRQAPGKEREFVARINWSGTLTYYADSVKGRFTGSRDNAKNTVYLQMNSLKPEDTAVYYCAQRGDSGSNYDPSGYSYWGQGTQVTVSS
notes: Text says asparagine at IMGT 36; Expressed in E. coli; also called G36D mutant
B7: VHH antibody in which glycine in position 78 of SEQ ID NO: 1 was substituted with alanine (SEQ ID NO: 5) (VHH)
VHH: QVQLVESGGGLVQAGDSLRLSCAASGRTFSGYAMGWFRQAPGKEREFVARINWSGTLTYYADSVKGRFTASRDNAKNTVYLQMNSLKPEDTAVYYCAQRGDSGSNYDPSGYSYWGQGTQVTVSS
notes: Expressed in E. coli; also called G78A mutant
B8: VHH antibody in which serine in position 116 of SEQ ID NO: 1 was substituted with arginine (SEQ ID NO: 6) (VHH)
VHH: QVQLVESGGGLVQAGDSLRLSCAASGRTFSGYAMGWFRQAPGKEREFVARINWSGTLTYYADSVKGRFTGSRDNAKNTVYLQMNSLKPEDTAVYYCAQRGDSGSNYDPSGYRYWGQGTQVTVSS
notes: Expressed in E. coli; also called S116R mutant
B9: VHH antibody in which arginine in position 50 of SEQ ID NO: 1 was substituted (SEQ ID NO: 4) (VHH)
VHH: QVQLVESGGGLVQAGDSLRLSCAASGRTFSGYAMGWFRQAPGKELEFVARINWSGTLTYYADSVKGRFTGSRDNAKNTVYLQMNSLKPEDTAVYYCAQRGDSGSNYDPSGYSYWGQGTQVTVSS
notes: Text says asparagine at IMGT 50; Expressed in E. coli; also called R50L mutant

The experiment deals with T1, human serum albumin (human, UniProt P02768 25-609).
T1 construct: Antigen in the SPR assay
Description: SPR. On the technique in general: Surface plasmon resonance follows binding to a sensor surface in real time, without labels.
Description: The binding affinity of the provided VHH antibodies to human serum albumin was measured with surface plasmon resonance.
For orientation: Kd means the free concentration of one partner at which half of the binding sites on the other are occupied at equilibrium, for simple one-to-one binding. Read a high Kd as lower affinity. The term koff denotes the first-order rate constant of dissociation. As usually defined, the kon is the second-order rate constant of association. Low values mean slower complex formation, high ones faster complex formation. B1 displayed an equilibrium dissociation constant (Kd) of 261 nM, an off-rate constant (koff) of 0.371 s⁻¹ and an on-rate (kon) of 1.42e+06 M⁻¹ s⁻¹.
For B2, binding was characterised by a dissociation constant (Kd) of 365 nM, the off-rate constant (koff) turned out to be 0.411 s⁻¹ and the kon worked out at 1.13e+06 M⁻¹ s⁻¹.
B3 displayed a Kd of 77.9 nM, an off-rate (koff) of 0.0879 s⁻¹ and a kon of 1.13e+06 M⁻¹ s⁻¹.
On the same counts, the results for B4 are 44.7 nM, 0.0643 s⁻¹ and 1.44e+06 M⁻¹ s⁻¹.
With B5, the Kd was 380 nM, the koff amounted to 0.355 s⁻¹ and the kon was found to be 933000 M⁻¹ s⁻¹.
For B6, the affinity, expressed as Kd, was 61.4 nM; the koff came to 0.125 s⁻¹; the association rate constant (kon) is 2.04e+06 M⁻¹ s⁻¹.
On the same counts, the results for B7 are 13200 nM, 0.806 s⁻¹ and 61200 M⁻¹ s⁻¹.
B8 registered a Kd of 35.6 nM, an off-rate constant (koff) of 0.591 s⁻¹ and a kon of 1.66e+07 M⁻¹ s⁻¹.
As to B9, the affinity, expressed as Kd, was 157 nM; the koff is 0.303 s⁻¹; the kon stood at 1.93e+06 M⁻¹ s⁻¹.
